Laboratory results: article PMC5515580
Numbering of substitutions follows the chain as printed. Names may count otherwise.

B1: P-S88-ARPP-16 (natural protein)
chain: MEDKVTSPEKAEEAKLKARYPHLGQKPGGSDFLRKRLQKGQKYFDSGDYNMAKAKMKNKQLPTAAPDKTEVTGDHIPTPQDLPQRKPSLVASKLAG
modifications: phosphoserine at 88 (by PKA, to a maximal stoichiometry)
B2: 6xHis-S88D-ARPP-16 (natural protein)
chain: B1 chain with S88D

Target: MAST3-HA (human) (UniProt O60307)
Sequence (O60307 313-1021): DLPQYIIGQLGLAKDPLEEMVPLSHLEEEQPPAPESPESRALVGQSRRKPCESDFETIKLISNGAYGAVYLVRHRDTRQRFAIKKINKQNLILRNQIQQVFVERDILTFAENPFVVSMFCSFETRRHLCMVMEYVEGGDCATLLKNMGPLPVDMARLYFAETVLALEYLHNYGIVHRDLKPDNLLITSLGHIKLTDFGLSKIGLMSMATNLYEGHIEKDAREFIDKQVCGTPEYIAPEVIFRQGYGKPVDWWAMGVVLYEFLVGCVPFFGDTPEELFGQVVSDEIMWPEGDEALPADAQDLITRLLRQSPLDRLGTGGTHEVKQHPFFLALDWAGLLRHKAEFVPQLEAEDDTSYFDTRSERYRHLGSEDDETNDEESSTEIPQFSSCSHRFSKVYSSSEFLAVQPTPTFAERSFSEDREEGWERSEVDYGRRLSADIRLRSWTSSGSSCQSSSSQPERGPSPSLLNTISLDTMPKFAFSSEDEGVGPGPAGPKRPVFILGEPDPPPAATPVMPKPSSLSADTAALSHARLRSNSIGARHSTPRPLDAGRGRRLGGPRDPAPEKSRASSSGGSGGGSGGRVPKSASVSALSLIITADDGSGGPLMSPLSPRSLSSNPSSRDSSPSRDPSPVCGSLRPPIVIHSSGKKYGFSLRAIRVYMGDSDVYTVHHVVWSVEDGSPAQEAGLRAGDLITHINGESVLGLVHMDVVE

Km of phosphorylation of Ser46 by immunoprecipitated MAST3 (32P incorporation, 10-500 nM substrate, 2 min; Figure 1b) [µM]	Km of phosphorylation of Ser46 by immunoprecipitated MAST3 (32P incorporation, 10-500 nM substrate, 2 min; Figure 1—figure supplement 1) [µM]	Binder
0.158	–	B1
–	0.138	B2
